B1: GpH7-A5/GpH7-B3 variant S267_10E/GpL16-k0 (antibody, human IgG1, kappa)
heavy 1: not shown
heavy 2: not shown
light: DIVMTQSPLSLPVTPGEPASISCQASESLVHSNRNTYLHWYLQKPGQSPQLLIYKVSNRFSGVPDRFSGSGSGTDFTLKISRVEAEDVGVYYCSQNTHVPPTFGQGTKVEIERTVAAPSVFIFPPSDEQLKSGTASVVCLLNNFYPREAKVQWKVDNALQSGNSQESVTEQDSKDSTYSLSSTLTLSKADYEKHKVYACEVTHQGLSSPVTKSFNRGEC
notes: Alteration in one H chain only; also called He Ab S267_10E
B2: GpH7-A5/GpH7-B3 variant T335_01G/GpL16-k0 (antibody, human IgG1, kappa)
heavy 1: not shown
heavy 2: not shown
light: B1 light
notes: Alteration in one H chain only; also called He Ab T335_01G
B3: GpH7-A5/GpH7-B3 variant S239_10E/GpL16-k0 (antibody, human IgG1, kappa)
heavy 1: not shown
heavy 2: not shown
light: B1 light
notes: Alteration in one H chain only; also called He Ab S239_10E
B4: GpH7-A5/GpH7-B3 variant S324_10E/GpL16-k0 (antibody, human IgG1, kappa)
heavy 1: not shown
heavy 2: not shown
light: B1 light
notes: Alteration in one H chain only; also called He Ab S324_10E
B5: GpH7-A5/GpH7-B3 variant S337_11K/GpL16-k0 (antibody, human IgG1, kappa)
heavy 1: not shown
heavy 2: not shown
light: B1 light
notes: Alteration in one H chain only; also called He Ab S337_11K
B6: GpH7-A5/GpH7-B3 variant S267_14T/GpL16-k0 (antibody, human IgG1, kappa)
heavy 1: not shown
heavy 2: not shown
light: B1 light
notes: Alteration in one H chain only; also called He Ab S267_14T
B7: GpH7-A5/GpH7-B3 variant S337_16H/GpL16-k0 (antibody, human IgG1, kappa)
heavy 1: not shown
heavy 2: not shown
light: B1 light
notes: Alteration in one H chain only; also called He Ab S337_16H
B8: GpH7-A5/GpH7-B3 variant Q295_12R/GpL16-k0 (antibody, human IgG1, kappa)
heavy 1: not shown
heavy 2: not shown
light: B1 light
notes: Alteration in one H chain only; also called He Ab Q295_12R
B9: GpH7-A5/GpH7-B3 variant S337_18N/GpL16-k0 (antibody, human IgG1, kappa)
heavy 1: not shown
heavy 2: not shown
light: B1 light
notes: Alteration in one H chain only; also called He Ab S337_18N
B10: GpH7-A5/GpH7-B3 variant S337_14T/GpL16-k0 (antibody, human IgG1, kappa)
heavy 1: not shown
heavy 2: not shown
light: B1 light
notes: Alteration in one H chain only; also called He Ab S337_14T
B11: GpH7-A5/GpH7-B3 variant S267_06M/GpL16-k0 (antibody, human IgG1, kappa)
heavy 1: not shown
heavy 2: not shown
light: B1 light
notes: Alteration in one H chain only; also called He Ab S267_06M
B12: GpH7-A5/GpH7-B3 variant S324_09D/GpL16-k0 (antibody, human IgG1, kappa)
heavy 1: not shown
heavy 2: not shown
light: B1 light
notes: Alteration in one H chain only; also called He Ab S324_09D
B13: GpH7-A5/GpH7-B3 variant T335_13S/GpL16-k0 (antibody, human IgG1, kappa)
heavy 1: not shown
heavy 2: not shown
light: B1 light
notes: Alteration in one H chain only; also called He Ab T335_13S
B14: GpH7-A5/GpH7-B3 variant S267_19Q/GpL16-k0 (antibody, human IgG1, kappa)
heavy 1: not shown
heavy 2: not shown
light: B1 light
notes: Alteration in one H chain only; also called He Ab S267_19Q
B15: GpH7-A5/GpH7-B3 variant Y296_02A/GpL16-k0 (antibody, human IgG1, kappa)
heavy 1: not shown
heavy 2: not shown
light: B1 light
notes: Alteration in one H chain only; also called He Ab Y296_02A
B16: GpH7-A5/GpH7-B3 variant S298_09D/GpL16-k0 (antibody, human IgG1, kappa)
heavy 1: not shown
heavy 2: not shown
light: B1 light
notes: Alteration in one H chain only; also called He Ab S298_09D
B17: GpH7-A5/GpH7-B3 variant T335_02A/GpL16-k0 (antibody, human IgG1, kappa)
heavy 1: not shown
heavy 2: not shown
light: B1 light
notes: Alteration in one H chain only; also called He Ab T335_02A
B18: GpH7-A5/GpH7-B3 variant Y300_16H/GpL16-k0 (antibody, human IgG1, kappa)
heavy 1: not shown
heavy 2: not shown
light: B1 light
notes: Alteration in one H chain only; also called He Ab Y300_16H

T1 sequence (P12314 16-292): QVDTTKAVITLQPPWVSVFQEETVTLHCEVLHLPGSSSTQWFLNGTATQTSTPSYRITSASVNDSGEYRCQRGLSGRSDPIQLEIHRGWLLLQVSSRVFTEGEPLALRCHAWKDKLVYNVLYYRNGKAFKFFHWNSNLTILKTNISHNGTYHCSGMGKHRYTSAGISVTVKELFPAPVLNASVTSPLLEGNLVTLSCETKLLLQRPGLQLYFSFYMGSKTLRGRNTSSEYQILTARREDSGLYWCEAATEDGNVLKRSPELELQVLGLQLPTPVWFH

The assay has as its target T1, FcγRIa (human, UniProt P12314 16-292).
T1 construct: extracellular domain; also called FcgRI; FcgRIa; not shown: His tag attached to the C terminus
The experiment in a line: SPR (Biacore), relative binding; control HeCon Ab GpH7-A5/GpH7-B3/GpL16-k0.
In the case of B1, the He/Con_1a is 106 % of control (=100).

In the case of B2, the He/Con_1a was 104 % of control (=100).

Regarding B3, the He/Con_1a is 105 % of control (=100).

For B4, the He/Con_1a is 105 % of control (=100).

Regarding B5, the He/Con_1a was 104 % of control (=100).

As for B6, the He/Con_1a was 102 % of control (=100).

On to B7, for which the He/Con_1a was 105 % of control (=100).

For B8, the He/Con_1a is 100 % of control (=100).

As to B9, the He/Con_1a was 105 % of control (=100).

On to B10, for which the He/Con_1a is 105 % of control (=100).

As to B11, the He/Con_1a was 106 % of control (=100).

Regarding B12, the He/Con_1a was 104 % of control (=100).

Turning to B13, the He/Con_1a was 105 % of control (=100).

As for B14, the He/Con_1a was 102 % of control (=100).

B15: the He/Con_1a is 103 % of control (=100).

With B16, the He/Con_1a is 106 % of control (=100).

With B17, the He/Con_1a is 103 % of control (=100).

B18: the He/Con_1a was 111 % of control (=100).

The values are drawn from patent US20150344570A1 (published 2015).
